# Measurements reported in patent US20250282834A1 (University of California, published 2025).
# Non-standard residues stand in square brackets, D forms with d. No end group written: not given here. *: point of attachment. Biotin = O=C1N[C@H]2[C@H](CS[C@H]2CCCCC(=O)*)N1; Orn = NCCC[C@H](N)C(=O)O; βAla = NCCC(=O)O
# B1: #2 (peptide)
# peptide: Biotin-EEVEEQEQQGVEQQEQETVEE
# notes: also called N-Biotin LANA peptide 2; KSHV LANA 876-896 as printed
# B2: #4 (peptide)
# peptide: Biotin-EDEMEVDYPVVSTHEQIASSPPG
# notes: also called N-Biotin LANA peptide 4; KSHV LANA 906-928
# B3: #5 (peptide)
# peptide: Biotin-IASSPPGDNTPDDDPQPGPSREYR
# notes: also called N-Biotin LANA peptide 5; KSHV LANA 922-945
# B4: #1 (peptide)
# peptide: Biotin-EQELEEVEEQEEQELEEVEEQEQ
# notes: also called N-Biotin LANA peptide 1; KSHV LANA 872-894 as printed
# B5: VGN73 (TAT-VGN73 fusion peptide) (peptide)
# peptide: [dR]KKRR[Orn]RRR[βAla]WKHAVIFWGNDPYGLKK
# modifications: also: N-terminal biotin only in ELISA, BLI and pull-down forms
# notes: Used without biotin in cell treatment assays; also called LANA peptide; cell-penetrating LANA peptide
# B6: #3 (peptide)
# peptide: Biotin-ETVEEPIILHGSSSEDEMEVDYP
# notes: also called N-Biotin LANA peptide 3; KSHV LANA 892-914
# B7: VGN73 mutant peptide (TAT-VGN73 mutant fusion peptide) (peptide)
# peptide: [dR]KKRR[Orn]RRR[βAla]AKHAVISAGNDPYGLKK
# modifications: also: N-terminal biotin only in BLI form
# B8: #8 (peptide)
# peptide: Biotin-QPPVPYRQIDDCPAKARPQHIFYR
# notes: also called N-Biotin LANA peptide 8; KSHV LANA 977-1000
# B9: modified TAT peptide (peptide)
# peptide: RKKRRXRRRA
# modifications: d-Arg at position 1; ornithine (ORN) at position 6; beta-alanine at position 10; N-terminal biotin in BLI
# notes: also called TAT alone; biotinylated TAT peptide
# How the values were obtained:
# [1] = biological target: T1, full-length Flag-CHD4 (chromodomain helicase DNA-binding protein 4) (UniProt Q14839 1-1912); assay: peptide pull-down: 100 nM purified Flag-CHD4 with 1 µg N-biotinylated peptide, anti-Flag immunoblot
# T1 construct: FLAG-tagged, made in recombinant baculovirus infected Sf9 cells and purified on Flag-agarose; also called purified CHD4; full-length CHD4
# [2] = biological target: T1, full-length Flag-CHD4 (chromodomain …); assay: ELISA, plate coated with 1 µM biotinylated VGN73, Flag-CHD4 protein titrated, OD 450 nm
# 685-1245 = biological target: T2, 685-1245; assay: ELISA, plate coated with 1 µM biotinylated VGN73, Flag-CHD4 deletion protein titrated, OD 450 nm
# T2 construct: Member of the group m7; The map draws it with the ATPase and C-terminal helicase boxes only, without PHD; also called Flag-CHD4 deletion protein 685-1245
# 1250-1912 = biological target: T3, 1250-1912; assay: as above
# T3 construct: Member of the group m7; The map draws it with the two DUF domains and CHDCT2, without PHD; also called Flag-CHD4 deletion protein 1250-1912
# 1531-1912 = biological target: T4, 1531-1912; assay: as above
# T4 construct: Member of the group m7; The map draws it with CHDCT2 only, without PHD; also called Flag-CHD4 deletion protein 1531-1912
# [3] = biological target: T1, full-length Flag-CHD4 (chromodomain …); assay: BLI, biotinylated peptide on streptavidin tips, full-length Flag-CHD4 at 0-50 nM in solution
# [4] = biological target: T5, CHD4 (endogenous, in PEL cells BC3 / BCBL-1) (UniProt Q14839 1-1912); assay: streptavidin pull-down from BC3 cells incubated with 10 µM biotinylated peptide, anti-CHD4 immunoblot
# T5 construct: Cellular protein in treated cells and their lysates
# T5 sequence (Q14839 whole entry): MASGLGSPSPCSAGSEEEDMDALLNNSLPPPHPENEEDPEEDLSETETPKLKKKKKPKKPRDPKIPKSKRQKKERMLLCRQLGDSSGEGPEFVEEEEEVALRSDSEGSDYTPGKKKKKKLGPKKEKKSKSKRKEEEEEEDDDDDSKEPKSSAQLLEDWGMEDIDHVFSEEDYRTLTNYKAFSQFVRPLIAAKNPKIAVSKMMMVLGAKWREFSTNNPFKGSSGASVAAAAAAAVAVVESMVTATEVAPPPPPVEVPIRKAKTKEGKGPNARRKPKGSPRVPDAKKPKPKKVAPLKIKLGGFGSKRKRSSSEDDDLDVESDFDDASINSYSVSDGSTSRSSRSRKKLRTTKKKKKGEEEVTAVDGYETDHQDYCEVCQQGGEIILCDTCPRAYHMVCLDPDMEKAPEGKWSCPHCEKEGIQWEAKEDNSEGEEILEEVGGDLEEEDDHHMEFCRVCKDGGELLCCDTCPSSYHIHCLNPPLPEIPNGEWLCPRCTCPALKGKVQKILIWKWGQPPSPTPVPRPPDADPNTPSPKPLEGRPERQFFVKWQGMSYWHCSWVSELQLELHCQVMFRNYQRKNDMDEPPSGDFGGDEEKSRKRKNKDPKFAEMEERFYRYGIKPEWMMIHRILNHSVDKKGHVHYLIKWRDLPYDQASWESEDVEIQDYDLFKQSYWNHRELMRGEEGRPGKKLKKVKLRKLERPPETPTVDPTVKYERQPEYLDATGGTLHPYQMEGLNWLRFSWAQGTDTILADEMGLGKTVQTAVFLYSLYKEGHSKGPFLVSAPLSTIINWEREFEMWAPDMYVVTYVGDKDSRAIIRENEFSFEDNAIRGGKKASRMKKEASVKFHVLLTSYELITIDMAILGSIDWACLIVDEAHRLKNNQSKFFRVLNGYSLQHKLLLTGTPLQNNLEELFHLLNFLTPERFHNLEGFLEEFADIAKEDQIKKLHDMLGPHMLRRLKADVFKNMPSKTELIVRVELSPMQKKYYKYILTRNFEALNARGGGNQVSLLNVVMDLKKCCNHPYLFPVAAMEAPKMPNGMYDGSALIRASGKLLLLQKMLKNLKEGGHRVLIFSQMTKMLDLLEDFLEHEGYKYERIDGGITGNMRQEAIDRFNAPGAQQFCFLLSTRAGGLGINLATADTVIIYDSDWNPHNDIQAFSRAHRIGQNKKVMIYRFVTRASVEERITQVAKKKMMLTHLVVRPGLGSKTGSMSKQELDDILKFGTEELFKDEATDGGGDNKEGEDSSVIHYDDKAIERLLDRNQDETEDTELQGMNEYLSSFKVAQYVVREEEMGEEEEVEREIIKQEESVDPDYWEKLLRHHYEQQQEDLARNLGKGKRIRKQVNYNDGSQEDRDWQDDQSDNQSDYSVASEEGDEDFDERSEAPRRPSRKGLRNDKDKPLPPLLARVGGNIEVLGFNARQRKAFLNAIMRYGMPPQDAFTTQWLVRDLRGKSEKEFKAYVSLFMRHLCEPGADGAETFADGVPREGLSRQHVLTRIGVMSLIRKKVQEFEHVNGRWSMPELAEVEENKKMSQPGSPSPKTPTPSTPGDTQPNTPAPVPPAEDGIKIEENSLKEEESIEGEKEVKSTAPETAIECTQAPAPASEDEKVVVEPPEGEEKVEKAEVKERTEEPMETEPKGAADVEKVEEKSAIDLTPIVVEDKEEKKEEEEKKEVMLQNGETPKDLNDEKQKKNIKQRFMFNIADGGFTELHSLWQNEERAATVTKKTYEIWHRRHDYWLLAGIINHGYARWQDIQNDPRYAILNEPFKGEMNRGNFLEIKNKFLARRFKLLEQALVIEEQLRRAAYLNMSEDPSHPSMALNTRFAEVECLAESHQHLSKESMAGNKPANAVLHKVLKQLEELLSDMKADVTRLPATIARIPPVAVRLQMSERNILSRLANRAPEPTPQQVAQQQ
# T1 sequence (Q14839 whole entry): as above
binder,measurement,setting,value
B1,binding result,[1],no binding (tested: 1 µg peptide with 100 nM CHD4)
B2,binding result,[1],no binding (tested: 1 µg peptide with 100 nM CHD4)
B3,binding result,[1],no binding (tested: 1 µg peptide with 100 nM CHD4)
B4,binding result,[1],no binding (tested: 1 µg peptide with 100 nM CHD4)
B5,EC50 (read off the curve),[2],~10 nM
same,binding result,685-1245,no binding (tested: 100 nM)
same,binding result,1250-1912,no binding (tested: 100 nM)
same,binding result,1531-1912,no binding (tested: 100 nM)
B6,binding result,[1],no binding (tested: 1 µg peptide with 100 nM CHD4)
B7,binding result,[3],no binding (tested: 50 nM)
same,binding result,[4],no binding (tested: 10 µM)
B8,binding result,[1],no binding (tested: 1 µg peptide with 100 nM CHD4)
B9,binding result,[3],no binding (tested: 50 nM)
same,binding result,[4],no binding (tested: 10 µM)
